The data set can be described thus: soluble on expression in E. coli; label from the status in PepcDB or PDB records.
On to “MSIKKSPVYNVIAVPVEKVQANDYNPNVVAPPEMRLLELSIWEDGFTMPCVCYYDKEKDVYILVDGFHRYSVLKTSKRIFQRENGMLPIVVIEKDLSNRMSSTIRHNRARGTHN”, for which the “soluble on expression in E. coli” value is “soluble”. For “MKRLLLTLTFPLFFVGCASQNPTHMAFSPQVPDISQQTSRPVQISLDTIDSRNAEYVARFMEEGTKTRLVGPSEPPKLLLDEVFRNGFTQAGYQIDPSATNSIQVQLEELQMDVTKKTFGYEAKHSVRIAVQARNSSQELVKRYKAKGVLKGPLTPDFATLEMDMNKLLGQLTGEILNDPELNQFLQK”, the “soluble on expression in E. coli” value is “soluble”.

Consider “MFGVKDAIFKIKRSIAGTDSSDSTAYTTASESSPQLKDSHNPFRNKTTSERTIVEEGSLPPVRLNGYLPSTKNKLLTPEMCDEIRTLMPTRIQLYTEWNLLYSLEQHGSSLHSLYSNVAPDSKEFRRVGYVLVIKDRKNGIFGAYSNEAFHPNEHRQYTGNGECFLWKLDKVPDVNISEKEESEQEGKEGKEEGDKEERWRFSGYPYTGVNEFAIYCTSEFLSMGAGDGHYGLLCDDGLLHGVSNPCQTYGNEVLSKEGKKFSIVALEVWRVG”, for which the “soluble on expression in E. coli” value is given as “soluble”.

With “NENFRWKTAVNMSMNRNKVVSLHKDYKSFRYGSEGFSMAYDMWVKEGGKLGDIYGNGFERDENGKIKLNETGNPIKVTGNNTLLGNANPDALLGWSNTFTYKGFTLYFLIDARIGGDVMSLTQAHLDAMGVSKESGESRDRGYVEYEGIQFKDVPNFYGTVGGRNGISEYYMYDATNVRLRELTLGYSFPETLLAKTKFIKGLDLTLVARNLFFLYKDAPFDPDATLSVGNTLQGVDVFGMPTTRNIGFNVKFTF”, the “soluble on expression in E. coli” value was “not soluble”.

“MGSDKIHHHHHHMATSQWRLIASICFLALTGWSTKAVSAETDKPPFYQVQWQGKSAYLLGSIHIGRADFYPLPTQIETALGKAKGLVVEVDMNKADSNALLRQYGRADKTKGLDWQSRDKQTVESMTPYCAATANVCQSIQSFAPWLQATQVNLIRYNNLGYSTDYGVDMQLMARHAALPVYQLETAESQFQLLASFDSQAQWSMVREAISTSDADLLSLIAAWRSGNEAELDSIMQEQMGGEGDTEMLEKILWRRNHVMADGIIKLMGSTEITSPLFVVVGAGHVVGDKSVVQLLEQAGAKVSACWKQTCQ”: the “soluble on expression in E. coli” value is “not soluble”. For the sequence “MGSDKIHHHHHHMGFIEVQQQFMDYIRDPSLPLPEGIEPRRMKIYRELFFNNIAGFVSSAFPVLKSVYEDDQWQALVQQFFVSHDCKTPIFVEIAGEFLAFLQHEYQMTEDDPVFMLQLAHYEWLELCVAVAPDTPAAQSINTIELNLHRLCLAACAKVAQYAFDVQHISVDYQPIEPTAQANFFCVFRGADDEVAFLQLTPLSAQVLAYIEQMTHSQQGVTVDAIISWLSEHYPQMPNDTLLSGCLPLLQQLAQKGIVISSIES”, the “soluble on expression in E. coli” value is recorded as “not soluble”. In the case of “MNREEMTLLGFEIVAYAGDARSKLLEALKAAENGDFAKADSLVVEAGSCIAEAHSSQTGMLAREASGEELPYSVTMMHGQLHLMTTILLKDVIHHLIELYKRGAK”, the “soluble on expression in E. coli” value is “soluble”. Regarding “MVNSDIREQLRPFFEPKAVAIIGATNKKGKVGNVIFENFKKNKEKGIFKGNIYPVNPKLDEIEGYKVYHDVSELPDDTDLAVIAIPAPAVPETMRKIGEKGIKSVIIITGGFGELGEEGKRMEQEILEIARANGIRVIGPNCVGVYVPDTGVDTVFLPDEKMDRPPSGPIAFISQSGAFAAAMLDWAAMAGIGIGKMVSYGNKIDVDDADLMEYFAHDDEIKVMTFYIEGVKDGRKFMETAKRVTKIKPIIALKSGRTEYGAKAASSHTGSLAGQDVIYDAVFKQTGIIRAEDFEHMFDLAKAFAKCKLPKGDRIGIITDGGGAGVMASDAVAKFGLKLAELSEETIKFLRERFPPHAVVGNPTDVVGDTDAERYRLALEAFTKDPNVDAILLIVLFQVPLLDEEEVINIITDYAKKSDKPIVVVSMGGYKTDKYARMLEERGIPVYPTPERGVRALAGLVRYAKYIRGNGE”, the “soluble on expression in E. coli” value is listed as “soluble”.

Regarding “MSKATFDPTRYNKSNNEPFNQVLDKHLSRRNFVKSGLGLGAMTAFAGMGLTGCGSDSSSSPIPVDPVPPLPPTKSSAKLNFTSVKGARLNAVVVPEGYSAQVLAPWGTPLNAKAAPWKADGSNTADDQANSVGMHHDGMHFFPLNQAGDDGLLCINHEYIDEIALHPNGPTVDATTGLRTIVDEVRKEINAHGVSVVRIKLTNNQWEVVYNDKHNRRFTGATVMDIAGPLAYSPLLETRYSPDGSQARGTLNNCGNGYTPWGTYLTCEENWPEYFVNRSTLTRDQIRIGISKTSSRYGWDDLAGQDEERLDEFSRFDVTPKGVSARDDYRNEANGHGYIVEIDPYNPTSRAIKRTALGRFRHEGCTFGKLSEGQPVVFYSGHDARFEYLYKFVSAAPWNPQDANSSNRLEIGDKYMNEGTLYAAKFNENGVGAWLPLTLDSQTTDGKTLGNSFASLADIILNTAGAADLLGATPMDRPEWCAVDPFTGSVYLTLTNNSKRTEANPANPRLKNNFGHIIRWDEADKETEFTWDIFVFGSPSDGNAETNLSGLTDLNQFASPDGLAFDKRGILWVQTDNGAEEVAEETNDQMLAIVPSTLLDSANKQTSVTAKNQMELKRFFVGPNDCEVTGFAISPDYKTVFANIQHPGNWPYSNNAAEVTPTGVVLRPRAATVVIRKLDGKEVAVLEHHHHHH”, the “soluble on expression in E. coli” value is recorded as “not soluble”. Consider “MKIEENMELPVILVTSGVLLPGASLKIPIRSKLNIQTIEKYLTRSSNDNYVVIAYKVSTDKVYEVATIAYVEKLFGWTFNSTVHYSLDVIGLHRANIDKLSLPTCIVSKVVDLNEAISNQNAIEKLVTGAKIIASNSLTDKFSREIYSLIDEKEYGKLADLCVSQMKFLGFMQLLEFLGANGTDARVEMCIKWMNEKKDANTLKLKVPNSLEASFPVDGKKRKIPNVKNQVEQLEEKLNAIEFSDEVSDRVYSELHRLKSMNAQQSEYNILMNWLELVSSLPWNTSTIDDIELHKARTILTESHEAMDDVKERVLEHLAVCKMNNSVKGMILCFTGPPGIGKTSIAKAIAESMGRKFQRVSLGGIRDESDIRGHRRTYVAAMPGRIIEALKTCKTNNPVFLLDEVDKLYSGNQGSPSAALLELLDPEQNSTFHDHYLNIPFDVSKIMFIATANDIDRLEPALRDRLEIIEMSGYSLKEKVKICENHLLTRQLTKHCISHDYVKLERQAIVAMIEEYTMEAGVRQLERNVGAICRNVALRLAEALNSDPGADVLPVMELPIQISASNIHKILKNKHMKRVKIVEKMRPLPAGVCFGLSVTTIGGRVMPIEASKSKGTGKIVTTGHLGKVLKESILVAKGWLSANSERLGLGTLEDQDIHVHLPAGAVNKDGPSAGTGLACALVSLATNIPLRSDAAVTGEISLTGHVLPIGGVKEKVLAAQREGLRRVVLPKSNEEEYLKMDEDIRLEMDVVLAETIEDVIGAMMDKSPVLAKL”, for which the “soluble on expression in E. coli” value is recorded as “not soluble”. On to “MDRFEIKEEFLLNGQSFKILSGAIHYFRVDPSDWHHSLYNLKALGFNTVETYVPWNLHEPQKGTFHFEGILDLERFLKLAQELGLYAIVRPSPYICAEWEFGGFPAWLLNEPGRMRSNNPTYLKHVAEYYDVLMEKIVPHQLANGGNILMIQIENEYGSFGEEKAYLRAIRDLMIARGVTAPFFTSDGPWRATLRAGSMIEDDILVTGNFGSKAKENFGMMQAFFEEHGKKWPLMCMEFWDGWFNRWKEPIIKRDPQELAESVREALALGSINLYMFHGGTNFGFMNGCSARGTIDLPQITSYDYDAPLDEQGNPTEKYFALQKMLHEEYPALPQAEPLVKESFAQTAIPLTNKVSLFATLETISQPVVSVYPQTMEQLGQNTGYLLYRTSIEKDAAEEKLRVIDGRDRLQLFVNQVHQATQYQTEIGEDIYVTLPQENNQIDILMENMGRVNYGHKLFADTQKKGIRTGVMADLHFMTQWQQYCLPMTSCEQVDYSREWQPDQPSFYQYHVELAEVKDTFIDVSKFGKGIVFVNQTNLGRFWNVGPTLSLYIPKGLLKEGQNEIVIFETEGTYQPEIQLVKEPLYKEMKEGLQ”, for which the “soluble on expression in E. coli” value was “not soluble”.

“MGSDKIHHHHHHMLGASQPYDLGPGIRRGSRGKGGAMTQIPNHDPLSDWGLPGWIYTSERFFKEEQDKVFRPSWQIVCHLNDIPKAGDFHTFDFIGESLVVVRSKDGGVRAFANVCRHRGARLLDGPVGRCGGRIVCPYHAWTYDLEGRLIGVPMRDDYPALDMAKEGLATIEVEVWRGFVFVRLEGDGPSVATMMAPYEDEVAHYRFEELQPFGRVTLRPRAVNWKNISDNYSDGLHIPVAHPGLTRLFGKGYGVEAEAYVDKMWGQLIDEPSESPSERLYQDILPDVAHLPGDRKRLWTYFKLWPNFAFDIYPDQVDFMQFIPISAEQTMIREIAYALPDDRREMKAARYLNWRINRQVNTEDTELVARVQQGMASRTFTAGPLATSEVSLRSFGRKMRALIPESRMPRPPEGW”: the “soluble on expression in E. coli” value was “not soluble”. In the case of “MGSDKIHHHHHHKHIVIMMTFKQDILPIIEALCSEGYHVTVIGKKIYQKDINNINHAYFIPAGNKYIMRHMKVLSKAKIIILDTYYLMMGGYQKKKGQTVIQTWHAAGALKNFGLTDHQVDLKNKAMVRQYKKVYDATDYYLVGGEKMAQCFIQSFDASPSQMLKFGLPRLTQYFRSNLKLEQQRLKKKYHITNKLAVYVPTYREGQVAQRTIDKENFERHLPNYTLLSHLHPSTVDCQTSHSIDVTSLLIMADIIISDYSSLPIEASALNKPTLIYNYDEQQYEKVRGLNEFYYAIPERYKMSNEESIIQAIQDNDEQFQSLFNDWHQYNSKDSLNQLVHFINKLVK”, the “soluble on expression in E. coli” value was “not soluble”. Regarding “MGSDKIHHHHHHLYTYLQYIQSSVQTDVGFCVDGAKNLENMYESTKAVGSGPVKRQAGYGASSPSRASGSHPAPSPYDAASTSSSSSSDSCCSCGIGLAGPAGFPGRPGRDGIDGPAGKPGRDGQDLDGESSSDGSQIELDCPAGPPGPPGNPGPQGNSGRPGMDGMPGRNGRCGRPGEQGERGPNGEDGRPGRRGDDGMPGTVNEIPGQAGPPGLRGAPGATGSQGPRGNDGRPGNKGPAGPPGDQGFDGAPGGPGADGEPGAQGPLGAKGECSHCPPPRTAPGY”, the “soluble on expression in E. coli” value is “not soluble”. Regarding “PASQTAANNLGGALNFSVENRTVKRIKFRYNVAKPITTEGLSKLSKGLGEAFLDNTTKAKLAELADPLNARYTGKKPDEVIQAQLDGLEELFADIPPPKDNDKQYKALRDLKRAAVEHRASANKHSVMDNARFETSKTNLSGLSSESILTKIMSSVRDASAPGNATRVAEFMRQDPKLRAMLKEMEGSIGTLARVRLEPKDSLVDKIDEGSLNGTMTQSDLSSMLEDRNEMRIKRLVVFHTATQAENFTSPTPLVSYNSGANVSVTKTLGRINFVYGADQDKPIGYTFDGELSRPSASLKEAAGDLKKEGFELKS”, the “soluble on expression in E. coli” value is “not soluble”. Consider “MGSDKIHHHHHHMQKIFDAHLHLWDLEKIPISWIKDDEKLEQNYDFFRMKQEYKEFEFIGAMYVEVNSDDLEKEALFALEQKKLHNLLFCLADFKHKEELSSFREVMHTSKKGAKRLFEADFEEKIEILKTFNIPFEACIKNEELGFLEKFLSKNPNLKVVLNHLGSPKINRLNEYKKDLSFLKKFQNLYIKLSIPDGFSQETPKEFIFELFAFLKENFSENKFIFGSNYPVAKITPAKWAKLIIESKIFDDLDKIFYKNALLIYKGG”, for which the “soluble on expression in E. coli” value is recorded as “not soluble”.

As for “MRIVQATLEHLDLLAPLFVKYREFYGMLSYPESSRKFLEKRLRRKESVIYLALADEEDRLLGFCQLYPSFSSLSLKRVWILNDIYVAEEARRQLVADHLLQHAKQMARETHAVRMRVSTSVDNEVAQKVYESIGFREDQEFKNYTLPISDELS”, the “soluble on expression in E. coli” value is listed as “soluble”. “MEDLQLQVTMRDFLDALTEVEPSATREFAMEIPTATWEDIGGLEKIKERLQAMVEWPLRYPELFQQFGLQTPKGILLSGPPGTGKTLVAKALARESGINFIPVNSSLLFSHWWGEAEKTLHEVFRKARQASPCLLFFDELDALVPARKAGEGSSIGSRLVSQFLMELDGLEELREVIVLGATNRIDMIDPAVLRPGRFDQILEFPYPDQAARKEIFQIYLRNRPVDPGINLDSLAGAAEGLVGSEIEALCKRAALLAVSEVINHKGAGAYIKTCHLEQALAEIQAEKQQARTGAENHTLRPVWNNVVPGAISQVGRLEHHHHHH”: the “soluble on expression in E. coli” value was “soluble”.

These data come from the DeepSol protein solubility set.
